Assay results: patent US20190016816A1 (APTEVO RESEARCH AND DEVELOPMENT, published 2019)

Assays:
FcγRIIa (CD32a His131) = target: T1, FcγRIIa (CD32a His131) (UniProt P12318 34-317, limits assumed); test: flow cytometry, CHO cells stably expressing CD32a His131, fluorescent anti-human IgG secondary, MFI (mean)
T1 construct: whole, on cells; allotype His131 as printed
T1 sequence (looked up): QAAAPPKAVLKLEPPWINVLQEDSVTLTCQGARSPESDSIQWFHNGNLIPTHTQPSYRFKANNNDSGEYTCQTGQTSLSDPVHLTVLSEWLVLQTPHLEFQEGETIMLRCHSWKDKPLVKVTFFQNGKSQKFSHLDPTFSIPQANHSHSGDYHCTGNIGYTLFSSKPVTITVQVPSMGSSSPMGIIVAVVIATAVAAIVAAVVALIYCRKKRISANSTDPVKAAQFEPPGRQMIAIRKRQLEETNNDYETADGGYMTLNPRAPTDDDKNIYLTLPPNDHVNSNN
Excerpt: ALG.APV-210 contains mutations introduced to prevent interaction with Fcγ receptors (FcγR) that could lead to FcγR-mediated T-cell activation or ADCC, ADCP, CDC etc. Binding of ALG.APV-210 was therefore tested on CHO cell transfectants stably expressing the following FcγR: FcγRI (CD64), FcγRIIa (CD32a His131), FcγRIIb (CD32b), FcγRIIIa (CD16a Val158 and CD16a Phe158), and FcγRIIIb (CD16b). Untransfected CHO cells were used as negative control. A control human IgG1 molecule was used as a positive control. Different concentrations of ALG.APV-210 or control IgG1 were incubated with the FcγR-expressing cell lines, washed, and labeled with a secondary anti-human IgG reagent. Binding of ALG.APV-210 and the control IgG1 was detected by flow cytometry.

human 5T4 on cells = target: T2, human 5T4 on cells (human, UniProt Q13641 32-420); test: flow cytometry, JAR cells, streptavidin-PE, normalized MFI of 2 pooled experiments
T2 construct: also called TPBG; hu5T4
T2 sequence: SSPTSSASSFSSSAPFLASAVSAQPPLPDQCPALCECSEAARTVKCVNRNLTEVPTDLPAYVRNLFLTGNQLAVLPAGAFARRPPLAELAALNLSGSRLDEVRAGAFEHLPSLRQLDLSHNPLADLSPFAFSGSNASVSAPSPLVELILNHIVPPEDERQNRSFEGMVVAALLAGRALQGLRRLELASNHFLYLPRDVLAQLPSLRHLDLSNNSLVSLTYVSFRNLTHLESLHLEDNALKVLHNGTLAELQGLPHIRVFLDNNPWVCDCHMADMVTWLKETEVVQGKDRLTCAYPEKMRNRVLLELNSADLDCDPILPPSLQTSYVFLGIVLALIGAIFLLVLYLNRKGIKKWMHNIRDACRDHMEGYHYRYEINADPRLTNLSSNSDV
Protocol: Prior to the FACS staining, all cell lines were characterized for their 5T4 expression levels using a receptor density kit (Quantum Simply Cellular, anti-human IgG, Bangs Laboratories, Inc). Adherent cell lines were cultured according to their supplier's instructions and were harvested from their cell culture flasks using Trypsin/EDTA, counted in R10 medium in a Burker chamber, and diluted in FACS buffer (PBS+0.5% BSA, 0.05% NaN₃) to a concentration of 4×10⁶ cells/mL. 50 μL (0.20×10⁶) of cell solution was added to a 96-well FACS staining plate (Falcon #351190). Cells were incubated for 20 min in 4° C. with 50 μL of the biotinylated ALG.APV-210 (2× final concentration). The antibodies were added in a serial dilution starting at 20 μg/mL titrating down in a 12 step ½ dilution down to 0.010 μg/mL. Following 2× washing with FACS buffer, cells were incubated for 30 min in 4° C. with 100 μL of a secondary antibody (streptavidin-PE, BD #554061, diluted 1/500). […] Cells were analysed for ALG.APV-210 binding using flow cytometry (FACSVerse) by gating on single cells. MFI values (secondary antibody only subtracted) from 1 out of 2 independent experiments, as well as normalized data and EC₅₀-values of pooled data from 2 experiments were determined and plotted using GraphPad Prism 7, non-linear regression log (agonist) vs. normalized response—variable slope.

human CD137 on cells = target: T3, human CD137 on cells (human, UniProt Q07011 24-255); test: flow cytometry, CHO-K1 cells expressing human CD137, PE anti-human IgG Fc secondary, MFI (median)
T3 construct: also called 4-1BB; TNFRSF9 (CHO-K1/human CD137 cells)
Protocol: Binding studies on CHO-K1 cells lines expressing CD137 were performed by standard flow cytometry-based staining procedures. CHO-K1 cells (generated by Alligator) were transfected with human or cynomolgus macaque CD137. A typical experiment would label approximately 100,000 cells per well, in 96-well plates, with a range of 100 nM to 0.05 nM binding molecule in 50 μL of saline buffer with 2% BSA and 2 mM EDTA, for 30 min on ice, followed by washes and incubation with PE-labeled secondary antibody, goat anti-human IgG Fcγ ([…]), for 20 minutes on ice. Signal from bound molecules was detected using a LSR-II™ or a Symphony A3 flow cytometer (BD Biosciences) and analyzed by FlowJo flow cytometry analysis software. Median fluorescence intensity (MFI-median) of bound molecules on live cells was determined after exclusion of doublets cells. Nonlinear regression analysis to determine EC₅₀ values was performed in GraphPad Prism 6® graphing and statistics software.

T3 sequence (Q07011 24-255 limits assumed): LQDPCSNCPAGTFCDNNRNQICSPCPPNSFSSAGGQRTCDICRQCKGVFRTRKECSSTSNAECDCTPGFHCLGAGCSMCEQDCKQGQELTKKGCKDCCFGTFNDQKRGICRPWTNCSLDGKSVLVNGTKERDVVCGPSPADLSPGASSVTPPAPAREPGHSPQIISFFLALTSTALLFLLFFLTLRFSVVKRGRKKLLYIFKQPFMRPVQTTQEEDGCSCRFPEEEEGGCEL

B1: ALG.APV-210 (bispecific antibody)
chain: EVQLLESGGGLVQPGGSLRLSCAASGFTFSHGSMYWVRQAPGKGLEWVSSISSGSGSTYYADSVKGRFTISHDNSKNTLYLQMNSLRAEDTAVYYCARSSYYGSYYSIDYWGQGTLVTVSSGGGGSGGGGSGGGGSGGGGSDIQMTQSPSSLSASVGDRVTITCRASQSISSYLNWYQQKPGKAPKLLIYAASSLQSGVPSRFSGSGSGTDFTLTISSLQPEDFATYYCQQYYDNLPTFGQGTKLEIKEPKSSDKTHTCPPCPAPEAAGAPSVFLFPPKPKDTLMISRTPEVTCVVVDVSHEDPEVKFNWYVDGVEVHNAKTKPREEQYNSTYRVVSVLTVLHQDWLNGKEYKCAVSNKALPAPIEKTISKAKGQPREPQVYTLPPSRDELTKNQVSLTCLVKGFYPSDIAVEWESNGQPENNYKTTPPVLDSDGSFFLYSKLTVDKSRWQQGNVFSCSVMHEALHNHYTQKSLSLSPGSGGGGSGGGGSGGGGSPSEVQLLESGGGLVQPGGSLRLSCAASGFTFSSYAMSWVRQAPGKCLEWVSAISGSGGSTYYADSVKGRFTISRDNSKNTLYLQMNSLRAEDTAVYYCARYYGGYYSAWMDYWGQGTLVTVSSGGGGSGGGGSGGGGSGGGGSDIQMTQSPSSLSASVGDRVTITCRASQSISSFLNWYQQKPGKAPKLLIYAASSLQSGVPSRFSGSGSGTDFTLTISSLQPEDSATYYCQQTYGYLHTFGCGTKLEIKR
notes: Optimized ADAPTIR scFv-Fc-scFv homodimer with stabilizing disulfide in the 1210 scFv; also called 5T4-CD137 bispecific antibody
FcγRIIa (CD32a His131)
  binding result: no binding (tested: 1000 nM)

B2: biotinylated ALG.APV-210 (bispecific antibody)
chain: EVQLLESGGGLVQPGGSLRLSCAASGFTFSHGSMYWVRQAPGKGLEWVSSISSGSGSTYYADSVKGRFTISHDNSKNTLYLQMNSLRAEDTAVYYCARSSYYGSYYSIDYWGQGTLVTVSSGGGGSGGGGSGGGGSGGGGSDIQMTQSPSSLSASVGDRVTITCRASQSISSYLNWYQQKPGKAPKLLIYAASSLQSGVPSRFSGSGSGTDFTLTISSLQPEDFATYYCQQYYDNLPTFGQGTKLEIKEPKSSDKTHTCPPCPAPEAAGAPSVFLFPPKPKDTLMISRTPEVTCVVVDVSHEDPEVKFNWYVDGVEVHNAKTKPREEQYNSTYRVVSVLTVLHQDWLNGKEYKCAVSNKALPAPIEKTISKAKGQPREPQVYTLPPSRDELTKNQVSLTCLVKGFYPSDIAVEWESNGQPENNYKTTPPVLDSDGSFFLYSKLTVDKSRWQQGNVFSCSVMHEALHNHYTQKSLSLSPGSGGGGSGGGGSGGGGSPSEVQLLESGGGLVQPGGSLRLSCAASGFTFSSYAMSWVRQAPGKCLEWVSAISGSGGSTYYADSVKGRFTISRDNSKNTLYLQMNSLRAEDTAVYYCARYYGGYYSAWMDYWGQGTLVTVSSGGGGSGGGGSGGGGSGGGGSDIQMTQSPSSLSASVGDRVTITCRASQSISSFLNWYQQKPGKAPKLLIYAASSLQSGVPSRFSGSGSGTDFTLTISSLQPEDSATYYCQQTYGYLHTFGCGTKLEIKR
notes: also called ALG.APV-210 (biotinylated for FACS detection)
Human 5T4 on cells
  EC50: 9 nM

B3: ALG.APV-187 (bispecific antibody)
chain: EVQLLESGGGLVQPGGSLRLSCAASGFTFSHGSMYWVRQAPGKGLEWVSSISSGSGSTYYADSVKGRFTISHDNSKNTLYLQMNSLRAEDTAVYYCARSSYYGSYYSIDYWGQGTLVTVSSGGGGSGGGGSGGGGSGGGGSDIQMTQSPSSLSASVGDRVTITCRASQSISSYLNWYQQKPGKAPKLLIYAASSLQSGVPSRFSGSGSGTDFTLTISSLQPEDFATYYCQQYYDNLPTFGQGTKLEIKSSEPKSSDKTHTCPPCPAPEAAGAPSVFLFPPKPKDTLMISRTPEVTCVVVDVSHEDPEVKFNWYVDGVEVHNAKTKPREEQYNSTYRVVSVLTVLHQDWLNGKEYKCAVSNKALPAPIEKTISKAKGQPREPQVYTLPPSRDELTKNQVSLTCLVKGFYPSDIAVEWESNGQPENNYKTTPPVLDSDGSFFLYSKLTVDKSRWQQGNVFSCSVMHEALHNHYTQKSLSLSPGSGGGGSGGGGSGGGGSPSEVQLLESGGGLVQPGGSLRLSCAASGFTFSSYAMSWVRQAPGKCLEWVSAISGSGGSTYYADSVKGRFTISRDNSKNTLYLQMNSLRAEDTAVYYCARYYGGYYSAWMDYWGQGTLVTVSSGGGGSGGGGSGGGGSGGGGSDIQMTQSPSSLSASVGDRVTITCRASQSISSFLNWYQQKPGKAPKLLIYAASSLQSGVPSRFSGSGSGTDFTLTISSLQPEDSATYYCQQTYGYLHTFGCGTKLEIKR
notes: Optimized ADAPTIR scFv-Fc-scFv homodimer with stabilizing disulfide in the 1210 scFv
Human CD137 on cells
  EC50: 0.9 nM
